According to patent US20150309050A1:
No end group written: not given here.

Legend:
[1] = target: VT026 antiserum; experiment: competition RIA, antiserum 1:100K, tracer iodinated PACAP(31-38)
[2] = target: VT027 antiserum; experiment: competition RIA, antiserum 1:200K, tracer iodinated PACAP(31-38)
[3] = target: VT028 antiserum; experiment: as above
[4] = target: VT026 antiserum; experiment: RIA standard curve, tracer iodinated PACAP(31-38); 4 pg cold standard
[5] = target: VT027 antiserum; experiment: as above
[6] = target: VT028 antiserum; experiment: as above
[7] = target: VT026 antiserum; experiment: RIA standard curve, tracer iodinated PACAP(31-38); 1 pg cold standard
[8] = target: VT027 antiserum; experiment: as above
[9] = target: VT028 antiserum; experiment: as above
[10] = target: VT026 antiserum; experiment: RIA standard curve, tracer iodinated PACAP(31-38); 2 pg cold standard
[11] = target: VT027 antiserum; experiment: as above
[12] = target: VT028 antiserum; experiment: as above
[13] = target: VT028 antiserum; experiment: RIA standard curve, tracer iodinated PACAP(31-38); 8 pg cold standard
[14] = target: VT026 antiserum; experiment: RIA standard curve, tracer iodinated PACAP(31-38); 32 pg cold standard
[15] = target: VT027 antiserum; experiment: as above
[16] = target: VT028 antiserum; experiment: as above
[17] = target: VT028 antiserum; experiment: RIA standard curve, tracer iodinated PACAP(31-38); 16 pg cold standard
[18] = target: VT026 antiserum; experiment: RIA standard curve, tracer iodinated PACAP(31-38); 128 pg cold standard
[19] = target: VT028 antiserum; experiment: as above
[20] = target: VT026 antiserum; experiment: RIA standard curve, tracer iodinated PACAP(31-38); 255 pg cold standard
[21] = target: VT027 antiserum; experiment: as above
[22] = target: VT028 antiserum; experiment: as above
[23] = target: VT026 antiserum; experiment: RIA standard curve, tracer iodinated PACAP(31-38); 510 pg cold standard
[24] = target: VT027 antiserum; experiment: as above
[25] = target: VT028 antiserum; experiment: as above
[26] = target: VT026 antiserum; experiment: RIA standard curve, tracer iodinated PACAP(31-38); 1,020 pg cold standard
[27] = target: VT027 antiserum; experiment: as above
[28] = target: VT026 antiserum; experiment: RIA standard curve, tracer iodinated PACAP(31-38); 2,040 pg cold standard
[29] = target: VT027 antiserum; experiment: as above
[30] = target: PACAP38 RIA antiserum (Peninsula Laboratories); experiment: competition RIA, double antibody immunoprecipitation, antiserum 1:30,000
[31] = target: VT026 antiserum; experiment: RIA standard curve, tracer iodinated PACAP(31-38); 5 pg cold standard (so in the source)
[32] = target: VT027 antiserum; experiment: RIA standard curve, tracer iodinated PACAP(31-38); 3 pg cold standard (so in the source)
[33] = target: VT026 antiserum; experiment: RIA standard curve, tracer iodinated PACAP(31-38); 18 pg cold standard (so in the source)
[34] = target: VT027 antiserum; experiment: as above
[35] = target: VT026 antiserum; experiment: RIA standard curve, tracer iodinated PACAP(31-38); 84 pg cold standard (so in the source)
[36] = target: VT027 antiserum; experiment: as above
[37] = target: VT028 antiserum; experiment: RIA standard curve, tracer iodinated PACAP(31-38); 54 pg cold standard (so in the source)
[38] = target: VT027 antiserum; experiment: RIA standard curve, tracer iodinated PACAP(31-38); 125 pg cold standard (so in the source)
[39] = target: VT027 antiserum; experiment: competition RIA, tracer iodinated PACAP(31-38); low end tied to VT027 by Table 6 (41 pg)
[40] = target: VT026 antiserum; experiment: competition RIA, tracer iodinated PACAP(31-38); high end tied to VT026 by Table 5 (20.3 fmol)
[41] = target: VT028 antiserum; experiment: RIA standard curve, tracer iodinated PACAP(31-38); 1.020 pg cold standard as printed (read as 1,020)
[42] = target: VT028 antiserum; experiment: RIA standard curve, tracer iodinated PACAP(31-38); 2.040 pg cold standard as printed (read as 2,040)
[43] = target: VT028 antiserum; experiment: RIA standard curve, tracer iodinated PACAP(31-38); 1 pg cold standard; period in the CPM read as thousands mark
[44] = target: VT028 antiserum; experiment: RIA standard curve, tracer iodinated PACAP(31-38); 2 pg cold standard; period in the CPM read as thousands mark
[45] = target: VT028 antiserum; experiment: RIA standard curve, tracer iodinated PACAP(31-38); 4 pg cold standard; period in the CPM read as thousands mark
[46] = target: VT028 antiserum; experiment: RIA standard curve, tracer iodinated PACAP(31-38); 8 pg cold standard; period in the CPM read as thousands mark
[47] = target: VT028 antiserum; experiment: RIA standard curve, tracer iodinated PACAP(31-38); 16 pg cold standard; period in the CPM read as thousands mark
[48] = target: VT028 antiserum; experiment: RIA standard curve, tracer iodinated PACAP(31-38); 32 pg cold standard; period in the CPM read as thousands mark
[49] = target: VT028 antiserum; experiment: RIA standard curve, tracer iodinated PACAP(31-38); 128 pg cold standard; period in the CPM read as thousands mark
[50] = target: VT028 antiserum; experiment: RIA standard curve, tracer iodinated PACAP(31-38); 255 pg cold standard; period in the CPM read as thousands mark
[51] = target: VT028 antiserum; experiment: RIA standard curve, tracer iodinated PACAP(31-38); 510 pg cold standard; period in the CPM read as thousands mark
[52] = target: VT028 antiserum; experiment: RIA standard curve, tracer iodinated PACAP(31-38); 54 pg cold standard (so in the source); period in the CPM read as thousands mark
[53] = target: VT028 antiserum; experiment: RIA standard curve, tracer iodinated PACAP(31-38); 1.020 pg cold standard as printed (read as 1,020); period in the CPM read as thousands mark

B1: PACAP38 (peptide, UniProt P18509 132-169, looked up)
peptide: HSDGIFTDSYSRYRKQMAVKKYLAAVLGKRYKQRVKNK
modifications: not fully specified; ends and bridges not checked
B1 showed a DETECTION LIMIT [1] of 5.38 pg, an MIDPOINT [fmol] [1] of 20.3 fmol and an MIDPOINT [pg] [1] of 92 pg. It also gave a DETECTION LIMIT [2] of 2.19 pg, an MIDPOINT [fmol] [2] of 92 fmol and an MIDPOINT [pg] [2] of 41 pg. The DETECTION LIMIT [3] was 6.69 pg, the MIDPOINT [fmol] [3] was 19.3 fmol and the MIDPOINT [pg] [3] was 67 pg. The BINDING [4] was 0.957, the CPM [4] was 5510 cpm and the BINDING [5] was 0.589. The CPM [5] was 7280 cpm, the BINDING [6] was 0.946 and the BINDING [7] was 0.973. The CPM [7] was 5600 cpm, the BINDING [8] was 0.978 and the CPM [8] was 7960 cpm. It also gave a BINDING [9] of 0.993, a BINDING [10] of 0.961 and a CPM [10] of 5540 cpm. It also gave a BINDING [11] of 0.931, a CPM [11] of 7620 cpm and a BINDING [12] of 0.981. It also gave a BINDING [13] of 0.914, a BINDING [14] of 0.728 and a CPM [14] of 4250 cpm. The BINDING [15] was 0.584, the CPM [15] was 4860 cpm and the BINDING [16] was 0.77. For the same binder, the BINDING [17] was 0.88, the BINDING [18] was 0.427 and the CPM [18] was 2800 cpm. It also gave a BINDING [19] of 0.367, a BINDING [20] of 0.271 and a CPM [20] of 1740 cpm. The BINDING [21] was 0.147, the CPM [21] was 1140 cpm and the BINDING [22] was 0.227. The BINDING [23] was 0.142, the CPM [23] was 1030 cpm and the BINDING [24] was 0.0789. It also gave a CPM [24] of 875 cpm, a BINDING [25] of 0.133 and a BINDING [26] of 0.0598. The CPM [26] was 800 cpm, the BINDING [27] was 0.0512 and the CPM [27] was 858 cpm. The BINDING [28] was 0.0479, the CPM [28] was 515 cpm and the BINDING [29] was 0.0302. For the same binder, the CPM [29] was 490 cpm, the assay midpoint [30] was 3.5 fmol and the BINDING [31] was 0.945. For the same binder, the CPM [31] was 5450 cpm, the BINDING [32] was 0.835 and the CPM [32] was 6850 cpm. The BINDING [33] was 0.859, the CPM [33] was 4980 cpm and the BINDING [34] was 0.715. For the same binder, the CPM [34] was 5900 cpm, the BINDING [35] was 0.502 and the CPM [35] was 3450 cpm. For the same binder, the BINDING [36] was 0.411, the CPM [36] was 3500 cpm and the BINDING [37] was 0.606. It also gave a BINDING [38] of 0.245, a CPM [38] of 2190 cpm and an assay midpoint [39] of 9 fmol. It also gave an assay midpoint [40] of 20 fmol, a BINDING [41] of 0.0685 and a BINDING [42] of 0.0389. The CPM [42] was 684 cpm, the CPM [43] was 11300 cpm and the CPM [44] was 11200 cpm. The CPM [45] was 10800 cpm, the CPM [46] was 10400 cpm and the CPM [47] was 10100 cpm. It also gave a CPM [48] of 8840 cpm, a CPM [49] of 4350 cpm and a CPM [50] of 2760 cpm. It also gave a CPM [51] of 1730 cpm, a CPM [52] of 7010 cpm and a CPM [53] of 1020 cpm.
